Patent US20130142788A1 (published 2013)
* marks the point of attachment. Biotin = O=C1N[C@H]2[C@H](CS[C@H]2CCCCC(=O)*)N1

Key:
[1] = molecular target: T1, myostatin artificial peptide No 35 (SGSGSAGPCCTPTKMSPI) (cysteine pairing not given here); assay: SRU BIND biosensor, peptides captured on streptavidin plate
T1 construct: also called Peptide 35
T1 peptide: Biotin-SGSGSAGPCCTPTKMSPI-NH2
Experimental: (§1) Work was carried out on an SRU BIND reader (SRU Biosystems). A streptavidin biosensor plate was washed, a baseline reading taken, and biotinylated peptides captured onto the streptavidin coated biosensor plate. The plate was washed again, and a new baseline reading taken, antibody was then added and binding monitored.

[2] = molecular target: T2, myostatin artificial peptide No 37 (SGSGCCTPTKMSPINMLY) (cysteine pairing not given here); assay: as above
T2 construct: also called Peptide 37
T2 peptide: Biotin-SGSGCCTPTKMSPINMLY-NH2
Experimental: as §1

[3] = molecular target: T3, myostatin artificial peptide No 1 (…) (N-terminus H-; C-terminus -NH2); assay: as above
T3 construct: also called Peptide 1
Experimental: as §1

[4] = molecular target: T4, myostatin artificial peptide No 39 (SGSGTKMSPINMLYFNGK) (HELM PEPTIDE1{[O=C1N[C@H]2[C@H](CS[C@H]2CCCCC(=O)[*:2])N1].S.G.S.G.T.K.M.S.P.I.N.M.L.Y.F.N.G.K.[am]}$$$$V2.0; SMILES …); assay: as above
T4 construct: also called Peptide 39
T4 peptide: SGSGTKMSPINMLYFNGK
Experimental: as §1

[5] = molecular target: T5, myostatin artificial peptide No 25 (SGSGFVFLQKYPHTHLVH) (HELM PEPTIDE1{[O=C1N[C@H]2[C@H](CS[C@H]2CCCCC(=O)[*:2])N1].S.G.S.G.F.V.F.L.Q.K.Y.P.H.T.H.L.V.H.[am]}$$$$V2.0; SMILES …); assay: as above
T5 construct: also called Peptide 25
T5 peptide: SGSGFVFLQKYPHTHLVH
Experimental: as §1

[6] = molecular target: T6, myostatin artificial peptide No 23 (SGSGGECEFVFLQKYPHT) (HELM PEPTIDE1{[O=C1N[C@H]2[C@H](CS[C@H]2CCCCC(=O)[*:2])N1].S.G.S.G.G.E.C.E.F.V.F.L.Q.K.Y.P.H.T.[am]}$$$$V2.0; SMILES …); assay: as above
T6 construct: also called Peptide 23
T6 peptide: SGSGGECEFVFLQKYPHT
Experimental: as §1

[7] = molecular target: T7, myostatin artificial peptide No 21 (SGSGNYCSGECEFVFLQK) (cysteine pairing not given here); assay: as above
T7 construct: also called Peptide 21
T7 peptide: Biotin-SGSGNYCSGECEFVFLQK-NH2
Experimental: as §1

[8] = molecular target: T8, myostatin artificial peptide No 49 (SGSGGKIPAMVVDRCGCS) (cysteine pairing not given here); assay: as above
T8 construct: also called Peptide 49
T8 peptide: Biotin-SGSGGKIPAMVVDRCGCS-OH
Experimental: as §1

[9] = molecular target: T9, myostatin artificial peptide No 5 (SGSGHSTESRCCRYPLTV) (cysteine pairing not given here); assay: as above
T9 construct: also called Peptide 5
T9 peptide: Biotin-SGSGHSTESRCCRYPLTV-NH2
Experimental: as §1

[10] = molecular target: T10, myostatin artificial peptide No 33 (SGSGNPRGSAGPCCTPTK) (cysteine pairing not given here); assay: as above
T10 construct: also called Peptide 33
T10 peptide: Biotin-SGSGNPRGSAGPCCTPTK-NH2
Experimental: as §1

[11] = molecular target: T11, myostatin artificial peptide No 17 (SGSGIAPKRYKANYCSGE) (HELM PEPTIDE1{[O=C1N[C@H]2[C@H](CS[C@H]2CCCCC(=O)[*:2])N1].S.G.S.G.I.A.P.K.R.Y.K.A.N.Y.C.S.G.E.[am]}$$$$V2.0; SMILES …); assay: as above
T11 construct: also called Peptide 17
T11 peptide: SGSGIAPKRYKANYCSGE
Experimental: as §1

[12] = molecular target: T12, myostatin artificial peptide No 43 (SGSGLYFNGKEQIIYGKI) (HELM PEPTIDE1{[O=C1N[C@H]2[C@H](CS[C@H]2CCCCC(=O)[*:2])N1].S.G.S.G.L.Y.F.N.G.K.E.Q.I.I.Y.G.K.I.[am]}$$$$V2.0; SMILES …); assay: as above
T12 construct: also called Peptide 43
T12 peptide: SGSGLYFNGKEQIIYGKI
Experimental: as §1

[13] = molecular target: T13, myostatin artificial peptide No 9 (SGSGRYPLTVDFEAFGWD) (HELM PEPTIDE1{[O=C1N[C@H]2[C@H](CS[C@H]2CCCCC(=O)[*:2])N1].S.G.S.G.R.Y.P.L.T.V.D.F.E.A.F.G.W.D.[am]}$$$$V2.0; SMILES …); assay: as above
T13 construct: also called Peptide 9
T13 peptide: SGSGRYPLTVDFEAFGWD
Experimental: as §1

[14] = molecular target: T14, myostatin artificial peptide No 13 (SGSGEAFGWDWIIAPKRY) (HELM PEPTIDE1{[O=C1N[C@H]2[C@H](CS[C@H]2CCCCC(=O)[*:2])N1].S.G.S.G.E.A.F.G.W.D.W.I.I.A.P.K.R.Y.[am]}$$$$V2.0; SMILES …); assay: as above
T14 construct: also called Peptide 13
T14 peptide: SGSGEAFGWDWIIAPKRY
Experimental: as §1

[15] = molecular target: T15, recombinant mature dimeric myostatin (human and mouse (mature sequences 100% …, UniProt O08689 268-376)); assay: Kinexa solution phase affinity
T15 construct: also called GDF-8; mature myostatin
T15 sequence: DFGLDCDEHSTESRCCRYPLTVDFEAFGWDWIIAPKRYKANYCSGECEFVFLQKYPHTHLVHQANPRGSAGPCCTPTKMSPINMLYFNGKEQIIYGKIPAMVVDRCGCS
Experimental: Kinexa (Sapidyne Instruments) solution phase affinity was used to determine the overall affinity for a range of anti-myostatin molecules. Myostatin beads were prepared either by adsorption (polymethylmethacrylate beads-PMMA) or amine coupling (NHS-activated sepharose beads). The range of anti-myostatin molecules studied necessitated the generation of beads coated with different concentrations of myostatin. For the solution phase portion of the assay, a fixed concentration of antibody was incubated with a broad range of myostatin concentrations and allowed to reach equilibrium by incubation at r.t. for at least 2 h before analysis proceeded. The myostatin beads were then used to determine the amount of free antibody present in the solution phase samples, by means of the free antibody binding to the myostatin bead matrix then detected using an appropriate secondary antibody (either anti-human or anti-mouse depending on the construct being tested) labelled with a fluorescent dye. The binding curves where fitted using the Kinexa Pro analysis software inherent to the machine. Multiple runs using varying starting concentrations of antibody were then compiled and analysed using the n-curve analysis software to give a more accurate determination of affinity.

B1: mouse monoclonal antibody 10B3 (antibody, mouse IgG2a, V domains shown)
VH: EVQLQQSGPELVKPGASVKISCKASGYSFTGYFMHWVKQSHGNILDWIGNIYPYNGVSNYNQRFKAKATLTVDKSSSTAYMELRSLTSEDSAVYYCARRYYYGTGPADWYFDVWGTGTTVTVSS
VL: DIKMTQSPSSMYASLRERVTITCKASQDINSYLSWFQQKPGKSPKTLIYRANRLVDGVPSRFSGSGSGQDYSLTISSLEYEDMGIYYCLQCDEFPLTFGAGTKLELK
notes: Murine IgG2a/k; also called 10B3 mouse parental; parental 10B3
Question: Does B1 bind [1]?
Answer: no binding

Question: Does B1 bind [2]?
Answer: no binding

Question: Does B1 bind [3]?
Answer: no binding

Question: Does B1 bind [4]?
Answer: no binding

Question: Does B1 bind [5]?
Answer: no binding

Question: Does B1 bind [6]?
Answer: no binding

Question: Does B1 bind [7]?
Answer: no binding

Question: Does B1 bind [8]?
Answer: no binding

Question: Does B1 bind [9]?
Answer: no binding

Question: Does B1 bind [10]?
Answer: no binding

Question: Does B1 bind [11]?
Answer: no binding

Question: Does B1 bind [12]?
Answer: no binding

Question: Does B1 bind [13]?
Answer: no binding

Question: Does B1 bind [14]?
Answer: no binding

Question: And the Kd [15]?
Answer: 0.205 nM
